From PMC10162664, “Microbial β-glucuronidases drive human periodontal disease etiology” (Science Advances, 2023) come the findings set out here.

In data set [1] the test system is Cc1cc(=O)oc2cc(O[C@@H]3O[C@H](C(=O)O)[C@@H](O)[C@H](O)[C@H]3O)ccc12. The data set is described as follows: purified protein. Conditions: pH 5.0.
In data set [2] the target is Tannerella forsythia GUS L2 (loop 2 β-glucuronidase) (Tannerella forsythia). The data set is described as follows: crystal structure; hanging drop vapor diffusion at room temperature; quaternary structure seen in the crystal.
The target is the same in data set [3]. The data set is described as follows: SEC-MALS; Superdex 200; protein at 2 mg/ml in 20 mM Hepes (pH 7.4), 300 mM NaCl; 50 μl injected, 0.5 ml/min.
The target in data set [4] is T1, TlGUS L1 (Treponema lecithinolyticum β-glucuronidase) (Treponema lecithinolyticum, UniProt A0AA82WPE8).
T1 construct: recombinant, N-terminal (His)6 tag retained
The data set is described as follows: […] Å crystal structure (as UNC4917-GlcA conjugate formed with PNPG); 4-MUG hydrolysis IC50. The format is biochemical.

Data set [5] has as its target Treponema lecithinolyticum GUS L1 (loop 1 β-glucuronidase) (Treponema lecithinolyticum). The data set is described as follows: crystal structure; hanging drop vapor diffusion at room temperature; quaternary structure seen in the crystal.
Data set [6] shares this target. The data set is described as follows: SEC-MALS; Superdex 200; protein at 2 mg/ml in 20 mM Hepes (pH 7.4), 300 mM NaCl; 50 μl injected, 0.5 ml/min. For orientation: In gel filtration, larger molecules generally elute earlier.
Data set [7] has as its target Tannerella forsythia GUS mL1 (mini-loop 1 β-glucuronidase) (Tannerella forsythia). The data set is described as follows: crystal structure; hanging drop vapor diffusion at room temperature; quaternary structure seen in the crystal.
Data set [8] has the same target. The data set is described as follows: SEC-MALS; Superdex 200; protein at 2 mg/ml in 20 mM Hepes (pH 7.4), 300 mM NaCl; 50 μl injected, 0.5 ml/min.
In data set [9] the target is T1, TlGUS L1 (Treponema lecithinolyticum β-glucuronidase). The data set is described as follows: […] Å crystal structure. The data set is classed as binding.
The target is the same in data set [10]. The data set is described as follows: […] Å crystal structure (as ciprofloxacin-GlcA conjugate formed with PNPG); IC50. The data set is classed as biochemical.
Substrate in the data set “purified protein”: Cc1cc(=O)oc2cc(O[C@@H]3O[C@H](C(=O)O)[C@@H](O)[C@H](O)[C@H]3O)ccc12
The data set is described as follows: purified protein. The note with it: pH 5.0. This is another data set of the same source.

Usually Km stands for the substrate concentration at which the rate is half of its maximum. In general, kcat refers to the maximal rate divided by the concentration of active sites. One may read the kcat/Km as the second-order rate constant that governs catalysis at low substrate concentration. In the case of “TlGUS L1 (Treponema lecithinolyticum β-glucuronidase) (Treponema lecithinolyticum)”, in data set [1], the Michaelis-Menten constant (Km) turned out to be 6.8 ± 1 µM, the kcat came out at 19 ± 1 s⁻¹ and the kcat/Km was found to be 2.8e+06 M⁻¹ s⁻¹.

The stoichiometry N is a count of units in the complex or per binding partner. “Tannerella forsythia GUS L2 (loop 2 β-glucuronidase) (enzyme)”: the stoichiometry N in [2] and in data set [3] was 2 throughout.

Broadly, the IC50 is the midpoint of a concentration-inhibition curve. A lower IC50 goes with inhibition by little substance. As to `CNc1ccc2c(n1)sc1c(N3CCNCC3)nc(NC)nc12` [UNC4917], half-maximal inhibition in data set [4] (IC50) required 2.5 µM. This counts as single-digit micromolar.

Take “Treponema lecithinolyticum GUS L1 (loop 1 β-glucuronidase) (enzyme)”: the stoichiometry N in data set [5] and in [6] was 4 each time.

Consider “Tannerella forsythia GUS mL1 (mini-loop 1 β-glucuronidase) (enzyme)”, for which the stoichiometry N in data set [7] and in data set [8] was 4 in each case.

Regarding `CNc1ccc2c(n1)sc1c(N3CCN([C@@H]4O[C@H](C(=O)O)[C@@H](O)[C@H](O)[C@H]4O)CC3)nc(NC)nc12` [UNC4917-GlcA, UNC4917-GlcA conjugate], the “1.75 Å crystal structure” value in data set [9] is given as “The UNC4917-GlcA conjugate is located within the active site”.

Consider `O=C(O)c1cn(C2CC2)c2cc(N3CCNCC3)c(F)cc2c1=O` [ciprofloxacin], for which it took 18.3 µM to reach half-maximal inhibition in data set [10] (IC50).

B1: human GUS (β-glucuronidase) (Homo sapiens) (protein)
chain: LQGGMLYPQESPSRECKELDGLWSFRADFSDNRRRGFEEQWYRRPLWESGPTVDMPVPSSFNDISQDWRLRHFVGWVWYEREVILPERWTQDLRTRVVLRIGSAHSYAIVWVNGVDTLEHEGGYLPFEADISNLVQVGPLPSRLRITIAINNTLTPTTLPPGTIQYLTDTSKYPKGYFVQNTYFDFFNYAGLQRSVLLYTTPTTYIDDITVTTSVEQDSGLVNYQISVKGSNLFKLEVRLLDAENKVVANGTGTQGQLKVPGVSLWWPYLMHERPAYLYSLEVQLTAQTSLGPVSDFYTLPVGIRTVAVTKSQFLINGKPFYFHGVNKHEDADIRGKGFDWPLLVKDFNLLRWLGANAFRTSHYPYAEEVMQMCDRYGIVVIDECPGVGLALPQFFNNVSLHHHMQVMEEVVRRDKNHPAVVMWSVANEPASHLESAGYYLKMVIAHTKSLDPSRPVTFVSNSNYAADKGAPYVDVICLNSYYSWYHDYGHLELIQLQLATQFENWYKKYQKPIIQSEYGAETIAGFHQDPPLMFTEEYQKSLLEQYHLGLDQKRRKYVVGELIWNFADFMTEQSPTRVLGNKKGIFTRQRQPKSAAFLLRERYWKIANETRYPHSVAKSQCLENSLFT
Take B1: in “purified protein”, the Michaelis constant (Km) amounted to 84 ± 7 µM, the kcat came out at 2.2 s⁻¹ and the kcat/Km stood at 26000 M⁻¹ s⁻¹.
